# Experimental data from patent US20070054328A1 (published 2007).
# B1: GST-DAPP1 (other, UniProt Q9UN19 1-280, looked up)
# chain: MGRAELLEGKMSTQDPSDLWSRSDGEAELLQDLGWYHGNLTRHAAEALLLSNGCDGSYLLRDSNETTGLYSLSVRAKDSVKHFHVEYTGYSFKFGFNEFSSLKDFVKHFANQPLIGSETGTLMVLKHPYPRKVEEPSIYESVRVHTAMQTGRTEDDLVPTAPSLGTKEGYLTKQGGLVKTWKTRWFTLHRNELKYFKDQMSPEPIRILDLTECSAVQFDYSQERVNCFCLVFPFRTFYLCAKTGVEADEWIKILRWKLSQIRKQLNQGEGTIRSRSFIFK
# notes: Control GST fusion expressed in 293 cells; also called dual adaptor for phosphotyrosine and 3-phosphoinositides; not shown: N-terminal glutathione S-transferase (GST) tag
# B2: endogenous TAPP1 of 293 cells (other, human, UniProt Q9HB21 1-404, looked up)
# chain: MPYVDRQNRICGFLDIEENENSGKFLRRYFILDTREDSFVWYMDNPQNLPSGSSRVGAIKLTYISKVSDATKLRPKAEFCFVMNAGMRKYFLQANDQQDLVEWVNVLNKAIKITVPKQSDSQPNSDNLSRHGECGKKQVSYRTDIVGGVPIITPTQKEEVNECGESIDRNNLKRSQSHLPYFTPKPPQDSAVIKAGYCVKQGAVMKNWKRRYFQLDENTIGYFKSELEKEPLRVIPLKEVHKVQECKQSDIMMRDNLFEIVTTSRTFYVQADSPEEMHSWIKAVSGAIVAQRGPGRSASSEHPPGPSESKHAFRPTNAATATSHSTASRSNSLVSTFTMEKRGFYESLAKVKPGNFKVQTVSPREPASKVTEQALLRPQSKNGPQEKDCDLVDLDDASLPVSDV
# B3: GST-FAPP1 (other, UniProt Q9HB20 1-300, looked up)
# chain: MEGVLYKWTNYLTGWQPRWFVLDNGILSYYDSQDDVCKGSKGSIKMAVCEIKVHSADNTRMELIIPGEQHFYMKAVNAAERQRWLVALGSSKACLTDTRTKKEKEISETSESLKTKMSELRLYCDLLMQQVHTIQEFVHHDENHSSPSAENMNEASSLLSATCNTFITTLEECVKIANAKFKPEMFQLHHPDPLVSPVSPSPVQMMKRSVSHPGSCSSERSSHSIKEPVSTLHRLSQRRRRTYSDTDSCSDIPLEDPDRPVHCSKNTLNGDLASATIPEESRLMAKKQSESEDTLPSFSS
# notes: Control GST fusion expressed in 293 cells; not shown: N-terminal glutathione S-transferase (GST) tag
# Legend:
# [1] = target: T1, endogenous PTPL1 (Protein Tyrosine Phosphatase Like-Protein-1) of 293 cells (human, UniProt Q12923 1-2485, limits assumed); assay: GST pull-down from 293 cells; pNPP phosphatase assay and anti-PTPL1 immunoblot
# T1 construct: also called FAP-1; endogenously expressed PTPL1
# T1 sequence (Q12923 whole entry): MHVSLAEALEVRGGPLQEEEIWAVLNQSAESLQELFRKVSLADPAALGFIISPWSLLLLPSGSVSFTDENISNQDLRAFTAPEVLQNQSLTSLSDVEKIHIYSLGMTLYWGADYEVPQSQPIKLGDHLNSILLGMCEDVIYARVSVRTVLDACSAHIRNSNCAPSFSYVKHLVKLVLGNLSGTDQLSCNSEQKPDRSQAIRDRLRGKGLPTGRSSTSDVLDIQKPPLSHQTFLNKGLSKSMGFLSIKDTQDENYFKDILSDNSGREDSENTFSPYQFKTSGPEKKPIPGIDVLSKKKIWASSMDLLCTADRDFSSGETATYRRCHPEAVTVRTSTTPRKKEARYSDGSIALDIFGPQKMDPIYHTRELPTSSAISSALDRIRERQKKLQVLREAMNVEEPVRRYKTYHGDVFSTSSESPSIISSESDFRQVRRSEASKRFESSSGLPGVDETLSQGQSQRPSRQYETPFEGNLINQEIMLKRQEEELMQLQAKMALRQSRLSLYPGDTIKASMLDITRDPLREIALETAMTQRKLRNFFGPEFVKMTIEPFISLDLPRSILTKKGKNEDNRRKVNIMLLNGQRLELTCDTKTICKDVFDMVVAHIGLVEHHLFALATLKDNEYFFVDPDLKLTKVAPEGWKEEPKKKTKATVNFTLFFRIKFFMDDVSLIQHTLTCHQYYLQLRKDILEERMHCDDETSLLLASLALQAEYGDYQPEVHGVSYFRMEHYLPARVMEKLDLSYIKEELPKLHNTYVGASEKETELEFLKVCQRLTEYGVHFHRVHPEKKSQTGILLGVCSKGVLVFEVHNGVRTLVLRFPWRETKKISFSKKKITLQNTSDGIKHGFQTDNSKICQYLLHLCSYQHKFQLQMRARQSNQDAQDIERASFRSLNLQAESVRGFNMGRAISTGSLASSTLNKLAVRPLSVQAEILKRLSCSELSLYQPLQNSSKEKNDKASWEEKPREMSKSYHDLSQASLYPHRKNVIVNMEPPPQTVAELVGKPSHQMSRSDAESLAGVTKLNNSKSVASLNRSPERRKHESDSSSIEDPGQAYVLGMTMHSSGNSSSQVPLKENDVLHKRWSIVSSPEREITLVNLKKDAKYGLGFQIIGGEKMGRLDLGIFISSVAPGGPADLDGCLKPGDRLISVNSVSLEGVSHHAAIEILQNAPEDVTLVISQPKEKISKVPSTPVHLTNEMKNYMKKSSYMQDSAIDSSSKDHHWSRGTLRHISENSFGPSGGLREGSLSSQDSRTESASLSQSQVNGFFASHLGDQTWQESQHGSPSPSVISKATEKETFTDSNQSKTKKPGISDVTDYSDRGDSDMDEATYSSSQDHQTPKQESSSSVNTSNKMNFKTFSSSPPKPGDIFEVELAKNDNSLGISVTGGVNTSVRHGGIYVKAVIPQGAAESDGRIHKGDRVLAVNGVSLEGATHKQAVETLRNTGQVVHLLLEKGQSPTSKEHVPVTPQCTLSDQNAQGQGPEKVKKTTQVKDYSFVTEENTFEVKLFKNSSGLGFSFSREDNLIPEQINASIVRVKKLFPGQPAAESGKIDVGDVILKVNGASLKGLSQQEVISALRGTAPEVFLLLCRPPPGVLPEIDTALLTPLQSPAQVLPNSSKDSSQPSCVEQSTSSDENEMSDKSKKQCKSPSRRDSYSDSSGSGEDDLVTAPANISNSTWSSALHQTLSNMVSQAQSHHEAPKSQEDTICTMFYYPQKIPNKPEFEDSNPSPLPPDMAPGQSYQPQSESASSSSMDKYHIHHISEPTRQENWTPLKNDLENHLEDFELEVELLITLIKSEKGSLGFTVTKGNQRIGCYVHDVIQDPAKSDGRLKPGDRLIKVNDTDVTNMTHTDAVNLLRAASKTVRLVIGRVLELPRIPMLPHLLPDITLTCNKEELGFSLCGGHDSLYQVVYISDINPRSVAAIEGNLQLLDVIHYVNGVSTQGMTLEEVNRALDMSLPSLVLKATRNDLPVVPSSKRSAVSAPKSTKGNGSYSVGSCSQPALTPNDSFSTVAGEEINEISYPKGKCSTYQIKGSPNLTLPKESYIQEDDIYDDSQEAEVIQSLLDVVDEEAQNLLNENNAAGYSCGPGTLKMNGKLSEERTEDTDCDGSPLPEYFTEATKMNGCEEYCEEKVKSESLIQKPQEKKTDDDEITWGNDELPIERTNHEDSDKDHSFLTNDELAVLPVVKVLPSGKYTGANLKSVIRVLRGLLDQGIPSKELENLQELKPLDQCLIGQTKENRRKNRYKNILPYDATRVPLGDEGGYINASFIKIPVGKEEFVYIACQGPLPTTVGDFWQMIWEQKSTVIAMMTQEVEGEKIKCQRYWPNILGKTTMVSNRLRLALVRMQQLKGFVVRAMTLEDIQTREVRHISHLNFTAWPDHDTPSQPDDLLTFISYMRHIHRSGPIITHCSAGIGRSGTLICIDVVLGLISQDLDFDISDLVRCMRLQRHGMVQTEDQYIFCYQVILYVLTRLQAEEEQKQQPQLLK
# Protocol: Rates or amounts of para-nitrophenol production were calculated using a standard curve generated from known amounts of para-nitrophenol. For the insulin receptor peptide assay a 50 μl reaction was set up containing 20 mM Tris pH7.4, 150 mM NaCl, 1 mM DTT, 20 μM of the tyrosine-phosphorylated peptide and 100 ng of GST-PTPL1. After 10 min at room temperature, the reactions were terminated by the addition of 0.1 ml of BIOMOL green reagent and after an additional 20 min the amount of phosphate liberated was quantitated by absorbance at 620 nm and measured against inorganic phosphate standards. In all assays we ensured that the rate of para-nitrophenol formation or the dephosphorylation of the insulin receptor peptide, was linear with time.
# Immunoblotting. For blots of total cell lysates or tissues 20 μg of protein was used. For the purified GST fusion proteins to detect association of endogenous PTPL1, 10 μg of fusion protein was employed for the PTPL1 blots and 0.1 μg for the GST blots. Samples were subjected to SDS/PAGE and transferred to nitrocellulose. […]
# [2] = target: T1, endogenous PTPL1 (Protein Tyrosine …); assay: cell-based or functional assay
Binder,binding result [1],pNPP phosphatase activity immunoprecipitated with the anti-PTPL1 antibody compared with the TAPP1 antibody [2] [fold]
B1,no binding,–
B2,–,~6
B3,no binding,–
